Values of other authors in patent US20230140868A1, “COMPOSITIONS AND METHODS FOR TREATING CANCER” (Alpha Beta Holdings, LLC, priority 2020, published 2023).

Target: T1, integrin αvβ3 (Mus musculus, UniProt O54890+P43406)
T1 sequence (P43406 31-885 limits assumed): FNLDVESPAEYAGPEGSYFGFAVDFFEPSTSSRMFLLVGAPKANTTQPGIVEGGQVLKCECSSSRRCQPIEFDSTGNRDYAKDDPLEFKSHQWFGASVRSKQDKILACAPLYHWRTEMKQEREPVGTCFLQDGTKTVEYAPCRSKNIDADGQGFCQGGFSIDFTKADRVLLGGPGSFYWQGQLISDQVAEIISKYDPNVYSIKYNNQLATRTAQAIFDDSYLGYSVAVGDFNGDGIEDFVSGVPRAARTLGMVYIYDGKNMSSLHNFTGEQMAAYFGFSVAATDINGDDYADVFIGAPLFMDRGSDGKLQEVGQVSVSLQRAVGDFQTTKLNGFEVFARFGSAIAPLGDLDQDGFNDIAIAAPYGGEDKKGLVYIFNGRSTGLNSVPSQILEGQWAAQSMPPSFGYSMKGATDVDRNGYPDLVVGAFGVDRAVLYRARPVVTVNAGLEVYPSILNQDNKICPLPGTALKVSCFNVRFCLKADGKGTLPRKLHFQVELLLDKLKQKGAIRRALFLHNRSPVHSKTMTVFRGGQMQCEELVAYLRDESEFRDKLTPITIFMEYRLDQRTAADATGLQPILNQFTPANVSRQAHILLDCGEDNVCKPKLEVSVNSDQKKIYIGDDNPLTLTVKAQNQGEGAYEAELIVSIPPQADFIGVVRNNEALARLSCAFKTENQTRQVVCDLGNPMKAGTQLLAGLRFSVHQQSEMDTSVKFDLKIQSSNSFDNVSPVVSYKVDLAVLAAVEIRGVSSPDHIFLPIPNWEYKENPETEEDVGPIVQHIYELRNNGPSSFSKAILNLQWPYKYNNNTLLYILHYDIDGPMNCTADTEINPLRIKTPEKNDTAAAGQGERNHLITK
T1 sequence (P43406 887-1044 limits assumed): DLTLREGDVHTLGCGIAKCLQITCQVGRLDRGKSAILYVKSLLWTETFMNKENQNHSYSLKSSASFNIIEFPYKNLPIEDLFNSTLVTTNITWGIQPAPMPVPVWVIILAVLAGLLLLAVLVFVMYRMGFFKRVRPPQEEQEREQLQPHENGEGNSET
T1 sequence (O54890 26-787): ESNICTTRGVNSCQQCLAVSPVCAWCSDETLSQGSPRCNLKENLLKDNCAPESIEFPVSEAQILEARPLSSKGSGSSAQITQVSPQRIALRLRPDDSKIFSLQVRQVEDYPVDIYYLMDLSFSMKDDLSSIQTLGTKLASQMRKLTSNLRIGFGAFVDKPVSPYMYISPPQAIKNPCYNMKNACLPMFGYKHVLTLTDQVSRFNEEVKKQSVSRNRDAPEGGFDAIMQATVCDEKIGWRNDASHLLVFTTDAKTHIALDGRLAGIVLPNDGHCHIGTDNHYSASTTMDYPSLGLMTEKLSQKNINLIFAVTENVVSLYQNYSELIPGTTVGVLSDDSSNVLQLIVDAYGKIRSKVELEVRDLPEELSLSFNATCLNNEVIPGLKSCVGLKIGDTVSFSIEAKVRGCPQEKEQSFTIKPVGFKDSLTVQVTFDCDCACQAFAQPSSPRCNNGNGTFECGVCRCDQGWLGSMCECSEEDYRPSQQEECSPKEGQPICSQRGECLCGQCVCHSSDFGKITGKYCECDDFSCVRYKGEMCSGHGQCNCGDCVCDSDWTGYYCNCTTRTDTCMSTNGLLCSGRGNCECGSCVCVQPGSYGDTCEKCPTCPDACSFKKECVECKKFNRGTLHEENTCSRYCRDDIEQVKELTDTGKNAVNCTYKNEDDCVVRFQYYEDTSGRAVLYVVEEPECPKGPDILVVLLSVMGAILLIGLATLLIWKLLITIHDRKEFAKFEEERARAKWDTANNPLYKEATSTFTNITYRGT
Details: mouse cells; Cheresh, 1987; cited from earlier work

B1: LM609: mouse monoclonal IgG1K antibody that recognizes human integrin αvβ3; SEQ ID NO:11 and 12 (antibody)
heavy: MNFGLRLIFLVLTLKGVKCEVQLVESGGGLVKPGGSLKLSCAASGFAFSSYDMSWVRQIPEKRLEWVAKVSSGGGSTYYLDTVQGRFTISRDNAKNTLYLQMSSLNSEDTAMYYCARHNYGSFAYWGQGTLVTVSAAKTTPPSVYPLAPGSAAQTNSMVTLGCLVKGYFPEPVTVTWNSGSLSSGVHTFPAVLQSDLYTLSSSVTVPSSTWPSETVTCNVAHPASSTKVDKKIVPRDCGCKPCICTVPEVSSVFIFPPKPKDVLTITLTPKVTCVVVDISKDDPEVQFSWFVDDVEVHTAQTQPREEQFNSTFRSVSELPIMHQDWLNGKEFKCRVNSAAFPAPIEKTISKTKGRPKAPQVYTIPPPKEQMAKDKVSLTCMITDFFPEDITVEWQWNGQPAENYKNTQPIMDTDGSYFVYSKLNVQKSNWEAGNTFTCSVLHEGLHNHHTEKSLSHSPGK
light: MVFTPQILGLMLFWISASRGDIVLTQSPATLSVTPGDSVSLSCRASQSISNHLHWYQQKSHESPRLLIKYASQSISGIPSRFSGSGSGTDFTLSINSVETEDFGMYFCQQSNSWPHTFGGGTKLEIKRADAAPTVSIFPPSSEQLTSGGASVVCFLNNFYPKDINVKWKIDGSERQNGVLNSWTDQDSKDSTYSMSSTLTLTKDEYERHNSYTCEATHKTSTSPIVKSFNRNEC
modifications: mAb LM609-mIgG1-kappa Heavy chain; mAb LM609-mIgG1-kappa Light chain
  recognition of integrin αvβ3: not mouse cells
